Test results from the RNAGym collection of RNA variant scans (doi:10.1073/pnas.2313332121).

B1: TPR t1 (parent)
chain: GACCAAUCUGCCCUCAGAGCUCGAGAACAUCUUCGGAUGCAGAGGAGGCAGGCUUCGGUGGCGCGAUAGCGCCAACGUCCUCAACCUCCAAUGCAUCCCACCACAUGAUGAUGCCUGAAGAGCCUUGGUUUUUUG

Variants of: B1
Test: polymerase ribozyme fitness, log enrichment relative to wild type (log ratio); higher = more active; in vitro selection for triplet polymerase activity
Summary of the method: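 Frozen incubation at −7 °C formed the core of a single, triplicate in vitro selection round applied to PCR-built, transcribed mutant libraries of each subunit of a heterodimeric triplet polymerase ribozyme. Extended constructs were gel-excised, captured with streptavidin beads and amplified by RT-PCR, and input and output libraries were Illumina-sequenced with a filter of ≥10 input reads and ≥1 read per output. Fitness is the logarithm of genotype enrichment relative to wild-type enrichment, with inverse-variance-weighted replicate averaging, and the logarithm is base 2.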

First: G35U C79A
Second: G36C G45C
The “polymerase ribozyme fitness (log ratio)” value of the first is lower: -6.66 for the first, -2.04 for the second.

Going from G36C C64U G93A A100C to C34U G57A G107A U109A U116G, the “polymerase ribozyme fitness (log ratio)” value falls from -3.67 to -6.43.

First: G35U G69U
Second: G35U G63U C72U
The “polymerase ribozyme fitness (log ratio)” value of the first is higher: -0.908 for the first, -7.14 for the second.

Compared with G36C C72A C94A C104U, G36A A121C is higher in “polymerase ribozyme fitness (log ratio)” value: -3.64 for the first, 0.979 for the second.

First: G36C A68G C79G C98U C115U C124U
Second: G36C U78C
The “polymerase ribozyme fitness (log ratio)” value of the first is lower: -6.44 for the first, -1.49 for the second.

First: G36C G63U A83G U126G
Second: G35A C94G C123G U129C
The “polymerase ribozyme fitness (log ratio)” value of the first is higher: -5.42 for the first, -5.78 for the second.

Going from C34U G113A C115A U132A to G36C C102U, the “polymerase ribozyme fitness (log ratio)” value rises from -6.07 to -3.5.

Going from G36C C72A G122A to C34U G122A, the “polymerase ribozyme fitness (log ratio)” value falls from -1.22 to -4.6.

Compared with G35C G61C C64A C123G, G36C G58C C101G A111U is higher in “polymerase ribozyme fitness (log ratio)” value: -6.08 for the first, -5 for the second.

First: G36A G42A A74G G127C
Second: G36C C49A C53A G61C C76U A119G
The “polymerase ribozyme fitness (log ratio)” value of the first is higher: -3.95 for the first, -6.33 for the second.

Compared with G36A G71U, C34U C72U A105G G120A is lower in “polymerase ribozyme fitness (log ratio)” value: -0.815 for the first, -6.01 for the second.

Going from G35C C76G C99G A100C U112A G120A to G36C A91C, the “polymerase ribozyme fitness (log ratio)” value rises from -6.53 to -1.87.

First: G36C G44A A74U C79G C101U
Second: G36C G120C
The “polymerase ribozyme fitness (log ratio)” value of the first is lower: -4.54 for the first, 0.237 for the second.

First: G35C A43G G60A C62U C64G A84U C98U A111U A121U
Second: G35U A74G C89U C115A
The “polymerase ribozyme fitness (log ratio)” value of the first is lower: -7.98 for the first, -6.17 for the second.

Going from G36C C64U to C34U C102U C124A, the “polymerase ribozyme fitness (log ratio)” value rises from -1.65 to -0.815.

First: G35U C64G C97G G117C
Second: C34U C56A G71C U112A
The “polymerase ribozyme fitness (log ratio)” value of the first is lower: -7.13 for the first, -6.49 for the second.

Going from C34U C79U U130C to G36C G44A G71U A75G C89A, the “polymerase ribozyme fitness (log ratio)” value rises from -5.4 to -4.65.

First: G35A C72G A105C U109G U116G A121G
Second: G35U A90C C97G A121C
The “polymerase ribozyme fitness (log ratio)” value of the first is higher: -6.34 for the first, -7.34 for the second.

First: G35A G122U C123G
Second: G35A G36U U112A
The “polymerase ribozyme fitness (log ratio)” value of the first is higher: -4 for the first, -5.59 for the second.

First: G36C C40A C62U C72U
Second: G36A G42C A84U U106A G110C C123U G128A
The “polymerase ribozyme fitness (log ratio)” value of the first is higher: -4.22 for the first, -7.57 for the second.

Compared with G35A C99A C123A, G35A C114G is higher in “polymerase ribozyme fitness (log ratio)” value: -6.8 for the first, -5.64 for the second.

First: C34U C49G C53G A75G C88A C104A U112A
Second: G36A G107A C124A
The “polymerase ribozyme fitness (log ratio)” value of the first is higher: -5.7 for the first, -7.46 for the second.

Going from G35A C102U to G36A C49A C56U, the “polymerase ribozyme fitness (log ratio)” value rises from -5.08 to -0.697.

First: G36A G113U A119U
Second: G35A G48U
The “polymerase ribozyme fitness (log ratio)” value of the first is lower: -4.19 for the first, -3.78 for the second.

Compared with G36C G61U A95C, G36A U55G C115A is higher in “polymerase ribozyme fitness (log ratio)” value: -2.42 for the first, -1.03 for the second.

Compared with G36C G44C C73U G110C C124U U125A, G35C G63C is lower in “polymerase ribozyme fitness (log ratio)” value: -4.74 for the first, -5.87 for the second.

First: C34U G110A
Second: G36C C70G G110C U129G
The “polymerase ribozyme fitness (log ratio)” value of the first is higher: -4.68 for the first, -5.33 for the second.

First: G36A G127U U133G
Second: G36A C72U
The “polymerase ribozyme fitness (log ratio)” value of the first is lower: -3.26 for the first, -1.29 for the second.

Compared with G36A C85A G117A, G36A C49A C56G C80A A90G is lower in “polymerase ribozyme fitness (log ratio)” value: -3.37 for the first, -4.92 for the second.

G35U G36U C124U and C34U C70G are within 0.2 log units of each other in “polymerase ribozyme fitness (log ratio)” value: -5.29 for the first, -5.34 for the second.

Going from G36A G45C A83G C101G to C34U C53G A66U C124A, the “polymerase ribozyme fitness (log ratio)” value falls from -2.84 to -6.48.

Going from C34U G63C A100U A111C to G36A C114A, the “polymerase ribozyme fitness (log ratio)” value rises from -5.4 to -2.96.

Compared with G35C G36A G51C C123G, G35U A75U C124A is higher in “polymerase ribozyme fitness (log ratio)” value: -6.59 for the first, -4.78 for the second.

First: G36C A37U G48C A91U C115U
Second: G36A U96G
The “polymerase ribozyme fitness (log ratio)” value of the first is lower: -4.92 for the first, -1.67 for the second.

First: G35C G45U G61A A121G
Second: G36C U112A
The “polymerase ribozyme fitness (log ratio)” value of the first is lower: -3.1 for the first, -1.13 for the second.

Going from G36A G52A G63U to G35U C64U A90U U106A C115G G117A A119G, the “polymerase ribozyme fitness (log ratio)” value falls from -3.22 to -6.88.

First: G36A G63A C94U U132A
Second: G36A C72G G110U
The “polymerase ribozyme fitness (log ratio)” value of the first is higher: -1.7 for the first, -4.37 for the second.

Going from G36C G128C to G36A G61U C72G G77A C82A C98U, the “polymerase ribozyme fitness (log ratio)” value falls from -4.43 to -6.

Going from G36A C89A to G36A C56U, the “polymerase ribozyme fitness (log ratio)” value rises from -2.49 to -0.261.

Compared with C34U C62U, G35U C53U C124G is higher in “polymerase ribozyme fitness (log ratio)” value: -5.32 for the first, -4.66 for the second.

Going from C34U C115U to G35A C64U A103C G120A, the “polymerase ribozyme fitness (log ratio)” value falls from -5.45 to -5.9.

Going from G36C U130G to C34U G63C, the “polymerase ribozyme fitness (log ratio)” value falls from -1.39 to -3.94.
